Experimental data: the supplement of paper PMC6757056
± gives the standard deviation of the averaged measurements.

B1: library; a variant is named by its letters at N, in order (parent)
chain: GCUGUCACCGGUGUAUUACCCUAGUGGUCGACCGGUCUGAUGAGUCUNNNNNNAGACGAAACAGC

Assays:
[1] = variants of: B1; experiment: normalized RNA/DNA level with ligand (relative to sTRSVctl = 100) (log10 (% of sTRSVctl)); ligand: hypoxanthine (xanthine aptamer); higher = less ribozyme self-cleavage, higher mRNA level; conditions: ligand concentration (+) RNA-Seq: 5 mM, HEK293T, reporter: mCherry (pCS4076), ligand present: yes
In short: (§1)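 Total RNA, extracted with EDTA 72 h after HEK293T cells were transfected with 4 µg per 6-well well of reporter-linked ribozyme switch library plasmids, was reverse-transcribed, amplified, barcoded and sequenced. Ligand, if used, was added 1 h before transfection. RNA level was derived from RNA reads divided by DNA reads and normalized to a spiked-in non-cleaving sequence or to the top sequences. This was multiplied by 100 and log10-transformed, with the top set of 25 sequences and a ≥100 DNA read minimum.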

[2] = variants of: B1; experiment: normalized RNA/DNA level without ligand (relative to sTRSVctl = 100) (log10 (% of sTRSVctl)); ligand: hypoxanthine (xanthine aptamer); higher = less ribozyme self-cleavage, higher mRNA level; conditions: HEK293T, reporter: mCherry (pCS4076), ligand present: no
In short: as §1

Row | Variant | normalized RNA/DNA level with ligand (log10) [1] | normalized RNA/DNA level without ligand (log10) [2]
1 | AGUGCA | 1.92 ± 0.051 | 1.78 ± 0.03
2 | AGUGCC | 1.94 ± 0.033 | 1.838 ± 0.0064
3 | AGUUAU | 1.89 ± 0.057 | 1.8 ± 0.068
4 | AGUACA | 1.87 ± 0.071 | 1.76 ± 0.036
5 | AGUACU | 1.897 ± 0.0094 | 1.89 ± 0.043
6 | AGUACC | 1.94 ± 0.069 | 1.87 ± 0.03
7 | CGUUCA | 1.974 ± 0.012 | 1.758 ± 0.014
8 | CGUUCG | 1.9 ± 0.025 | 1.84 ± 0.052
9 | CGUUCC | 1.98 ± 0.032 | 1.913 ± 0.017
10 | CGUUCU | 1.97 ± 0.046 | 1.843 ± 0.012
11 | CGUGGC | 1.901 ± 0.0033 | 1.883 ± 0.013
12 | CGUGGU | 1.95 ± 0.021 | 1.86 ± 0.026
13 | GGUCGG | 1.87 ± 0.031 | 1.65 ± 0.021
14 | GGUCGA | 1.954 ± 0.0067 | 1.82 ± 0.067
15 | GGUCGU | 1.99 ± 0.08 | 1.98 ± 0.092
16 | GGUCGC | 1.97 ± 0.029 | 1.74 ± 0.04
17 | GGUCUU | 1.933 ± 0.018 | 1.94 ± 0.025
18 | GGUCUC | 2.006 ± 0.016 | 1.96 ± 0.037
19 | GGUCUG | 1.87 ± 0.06 | 1.71 ± 0.029
20 | CGUGAC | 1.916 ± 0.0084 | 1.79 ± 0.04
21 | CGUGAG | 1.85 ± 0.082 | 1.75 ± 0.011
22 | CGUGAU | 1.9 ± 0.032 | 1.73 ± 0.024
23 | CGUACG | 1.92 ± 0.056 | 1.87 ± 0.028
24 | CGUACU | 1.954 ± 0.018 | 1.8632 ± 0.0012

Row | Variant | normalized RNA/DNA level with ligand (log10) [1] | normalized RNA/DNA level without ligand (log10) [2]
25 | UGGUUG | 1.962 ± 0.011 | 1.79 ± 0.03
26 | AUAACC | 1.943 ± 0.0094 | 1.8816 ± 0.0015
27 | AUAACU | 1.93 ± 0.034 | 1.88 ± 0.027
28 | AUAACG | 1.87 ± 0.062 | 1.43 ± 0.11
29 | AGUGUU | 1.96 ± 0.031 | 1.81 ± 0.027
30 | AGUGUC | 1.98 ± 0.11 | 1.88 ± 0.02
31 | GGUGUU | 1.97 ± 0.051 | 1.88 ± 0.03
32 | GGUGUC | 1.916 ± 0.0061 | 1.846 ± 0.018
33 | GGUUAA | 1.93 ± 0.062 | 1.77 ± 0.072
34 | GGUUAU | 1.94 ± 0.052 | 1.79 ± 0.03
35 | GGGUUU | 1.951 ± 0.015 | 1.951 ± 0.0082
36 | CGUUGC | 1.96 ± 0.1 | 1.91 ± 0.088
37 | CGUUGA | 1.96 ± 0.024 | 1.834 ± 0.014
38 | CGUUGU | 1.98 ± 0.05 | 1.89 ± 0.059
39 | AGUAGG | 1.78 ± 0.051 | 1.368 ± 0.013
40 | AGUAGC | 1.911 ± 0.012 | 1.64 ± 0.08
41 | AUACAU | 1.91 ± 0.03 | 1.794 ± 0.017
42 | GGUUGU | 1.94 ± 0.065 | 1.76 ± 0.035
43 | GGUUGA | 1.94 ± 0.046 | 1.64 ± 0.021
44 | CGGUUU | 1.935 ± 0.017 | 1.791 ± 0.015
45 | CGGUUG | 1.97 ± 0.072 | 1.88 ± 0.062
46 | AGUCAA | 1.89 ± 0.051 | 1.8 ± 0.035
47 | AGUCAC | 1.94 ± 0.06 | 1.883 ± 0.014
48 | AGUCAG | 1.86 ± 0.13 | 1.64 ± 0.041

Row | Variant | normalized RNA/DNA level with ligand (log10) [1] | normalized RNA/DNA level without ligand (log10) [2]
49 | AGUUGA | 1.915 ± 0.0047 | 1.63 ± 0.032
50 | AGUUGU | 1.93 ± 0.043 | 1.63 ± 0.076
51 | GGUGGG | 1.9 ± 0.028 | 1.47 ± 0.056
52 | GGUGGU | 1.96 ± 0.084 | 1.86 ± 0.061
53 | UGUUCG | 1.94 ± 0.074 | 1.8368 ± 0.00097
54 | UGUUCC | 2.03 ± 0.011 | 1.93 ± 0.022
55 | UGUUCA | 1.96 ± 0.093 | 1.87 ± 0.029
56 | UGUUCU | 1.93 ± 0.058 | 1.97 ± 0.051
57 | UUAACU | 1.932 ± 0.017 | 1.841 ± 0.012
58 | UUAACA | 1.93 ± 0.059 | 1.9 ± 0.0046
59 | UUAACC | 1.941 ± 0.0056 | 1.921 ± 0.0067
60 | UGUCCA | 1.89 ± 0.061 | 1.88 ± 0.057
61 | UGUCCG | 1.925 ± 0.0047 | 1.8 ± 0.017
62 | UGUCAG | 1.89 ± 0.03 | 1.74 ± 0.07
63 | UGUCAC | 1.9615 ± 0.00089 | 1.885 ± 0.012
64 | UGUCAA | 1.9 ± 0.035 | 1.79 ± 0.019
65 | UGUCAU | 1.939 ± 0.01 | 1.823 ± 0.0053
66 | UGUGAG | 1.894 ± 0.015 | 1.588 ± 0.011
67 | UGUGAU | 1.9 ± 0.026 | 1.77 ± 0.023
68 | UGUGAA | 1.908 ± 0.012 | 1.76 ± 0.025
69 | GGUCCC | 1.92 ± 0.05 | 1.902 ± 0.0045
70 | GGUCCG | 2.01 ± 0.061 | 1.829 ± 0.018
71 | GGUCCU | 1.941 ± 0.017 | 1.96 ± 0.061
72 | CGUUUU | 1.92 ± 0.073 | 1.833 ± 0.014

Row | Variant | normalized RNA/DNA level with ligand (log10) [1] | normalized RNA/DNA level without ligand (log10) [2]
73 | CGUUUA | 1.89 ± 0.032 | 1.68 ± 0.013
74 | CGUUUG | 1.96 ± 0.067 | 1.864 ± 0.0052
75 | GGUCAG | 1.94 ± 0.023 | 1.69 ± 0.012
76 | GGUCAU | 1.94 ± 0.037 | 1.89 ± 0.041
77 | GGUCAA | 1.94 ± 0.036 | 1.83 ± 0.034
78 | GUACAU | 1.9 ± 0.034 | 1.77 ± 0.056
79 | GUACAC | 1.919 ± 0.0031 | 1.79 ± 0.041
80 | AGUAUU | 1.922 ± 0.015 | 1.86 ± 0.037
81 | AGUAUG | 1.824 ± 0.017 | 1.39 ± 0.043
82 | AGUAUC | 1.96 ± 0.044 | 1.931 ± 0.013
83 | CGUAGA | 1.958 ± 0.0094 | 1.8 ± 0.021
84 | CGUAGG | 1.808 ± 0.0097 | 1.334 ± 0.0095
85 | CGUAGU | 1.99 ± 0.086 | 1.87 ± 0.037
86 | CGUAGC | 1.9509 ± 0.00084 | 1.875 ± 0.0047
87 | AGUCCC | 1.94 ± 0.026 | 1.931 ± 0.012
88 | AGUCCA | 1.95 ± 0.05 | 1.868 ± 0.015
89 | AGUCCG | 1.9 ± 0.09 | 1.528 ± 0.0051
90 | AGGUUU | 1.95 ± 0.073 | 1.87 ± 0.026
91 | AGGUUC | 1.939 ± 0.0087 | 1.83 ± 0.026
92 | UGUUGC | 1.943 ± 0.015 | 1.87 ± 0.051
93 | UGUUGA | 1.9 ± 0.021 | 1.674 ± 0.0081
94 | UGUUGG | 1.91 ± 0.058 | 1.53 ± 0.04
95 | GGUAUU | 1.973 ± 0.0023 | 1.88 ± 0.085
96 | GGUAUC | 1.957 ± 0.017 | 1.82 ± 0.013

Row | Variant | normalized RNA/DNA level with ligand (log10) [1] | normalized RNA/DNA level without ligand (log10) [2]
97 | GGUAUA | 1.92 ± 0.074 | 1.83 ± 0.024
98 | UGUAGC | 1.94 ± 0.046 | 1.796 ± 0.0085
99 | UGUAGU | 1.88 ± 0.029 | 1.5 ± 0.071
100 | UGUAGG | 1.895 ± 0.002 | 1.5 ± 0.015
101 | GGUGCA | 1.92 ± 0.043 | 1.88 ± 0.05
102 | GGUUUC | 1.946 ± 0.011 | 1.916 ± 0.0058
103 | GGUACC | 1.94 ± 0.067 | 1.921 ± 0.016
104 | GGUACA | 1.94 ± 0.03 | 1.796 ± 0.0062
105 | CUAAAU | 1.883 ± 0.01 | 1.82 ± 0.03
106 | CUAAAA | 1.88 ± 0.032 | 1.813 ± 0.0042
107 | CUAAAG | 1.92 ± 0.051 | 1.67 ± 0.013
108 | UGUGCC | 1.984 ± 0.0044 | 1.946 ± 0.019
109 | UGUGCU | 1.92 ± 0.0065 | 1.93 ± 0.057
110 | UGUGCA | 1.92 ± 0.031 | 1.86 ± 0.022
111 | CUAAGG | 1.91 ± 0.032 | 1.75 ± 0.046
112 | CUAAGA | 1.947 ± 0.013 | 1.838 ± 0.011
113 | UGUCUC | 1.999 ± 0.0092 | 2.013 ± 0.019
114 | UGUCUU | 2.01 ± 0.033 | 1.907 ± 0.0099
115 | UGUCUG | 1.93 ± 0.037 | 1.77 ± 0.03
116 | GGUAGA | 1.894 ± 0.015 | 1.41 ± 0.058
